Patent publication US10479836B2, “Method for treating pulmonary hypertension with interleukin-5 receptor antibody” (University of Toyama, priority 2015, dated 2019)

How the values were obtained:
[1] = system: rIL-33-induced pulmonary vascular wall thickening; test: rIL-33-induced pulmonary arterial wall thickening, Heath-Edwards grading of lung tissue; type: in vivo, mouse; conditions: IL-5+/+ mice given rIL-33; intrabronchial administration on days 7 and 14; compared with PBS group; FIG. 8
Procedure: Therefore, the degree of vascular wall thickening in IL-5^+/+ mice and IL-5^V/V mice was quantitatively graded on the basis of the Heath-Edwards grading system. On days 0, 7, and 14, 400 ng of rIL-33 was administered to each mouse. On day 21, lung tissues were resected and subjected to pathological observation to conduct tissue classification on the basis of the Heath-Edwards grading system.
In this grading system, evaluation was carried out according to grade 1: medial thickening, grade 2: intimal thickening, grade 3: advanced intimal thickening and medial thickening, and grade 4; plexiform lesion in addition to advanced intimal thickening and medial thickening.
In an experimental system similar to that of Example 3, in order to confirm the inhibitory effect of an anti-IL-5 neutralizing antibody on intimal thickening and medial thickening, 100 μg of an anti-IL-5 rat monoclonal antibody (NC17) (Hitoshi et al., Int. Immunol., 1991; 3; 135-139) or a rat IgG control antibody (manufactured by Sigma-Aldrich Co., LLC) was intraperitoneally administered to each IL-5^+/+ mouse for 3 consecutive days (a total of 3 times) from two days before rIL-33 administration day. Then, on day 21, lung tissues were resected and subjected to pathological observation to conduct tissue classification on the basis of the Heath-Edwards grading system. […]

mouse FcγRIII = molecular target: T1, mouse FcγRIII (Mus musculus, UniProt P08508); test: Biacore steady state affinity for mouse FcγRIII; type: binding; conditions: Biacore T-200, Steady State Affinity mode
T1 construct: purchased R&D Systems, Inc
T1 sequence (P08508 31-261): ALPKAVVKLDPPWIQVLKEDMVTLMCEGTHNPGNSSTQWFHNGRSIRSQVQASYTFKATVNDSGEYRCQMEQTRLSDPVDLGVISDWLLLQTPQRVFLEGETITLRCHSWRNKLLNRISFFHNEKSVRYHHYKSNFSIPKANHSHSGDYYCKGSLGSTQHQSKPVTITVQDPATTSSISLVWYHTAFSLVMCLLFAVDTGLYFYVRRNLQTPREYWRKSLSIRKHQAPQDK
Procedure: (§1) The various H7 chimeric antibodies prepared in Example 8 and the parent antibody H7 rat IgG2a-type antibody were evaluated for their affinity for mouse FcγR using Biacore T-200 (manufactured by GE Healthcare Japan Corp.). An anti-tetra His mouse antibody (manufactured by Qiagen N.V.) was immobilized with 8000 RU as a guideline onto CM5 sensor chip using an amine coupling kit (all manufactured by GE Healthcare Japan Corp.). The coupling buffer used was 10 mM sodium acetate (pH 4.5). His tag-fused mouse FcγRI, IIb, III, and IV proteins (all manufactured by R&D Systems, Inc.) each dissolved at 2 μg/mL in HBS-EP(+) were captured as ligands at 2 μL/min for 30 sec. Then, each antibody serially diluted into concentrations of […] was added thereto as an analyte by the multicycle method. The flow rate was 5 μL/min, and the contact time and the dissociation time were both set to a condition of 240 sec. The analysis was carried out using Biacore T200 Evaluation software on the Steady State Affinity mode. A rise in binding activity against FcγRI and FcγRIV involved in in vivo mouse effector activity was observed by the alteration of the H7 constant region from rat IgG2a type to hIgG1 type.

[2] = system: mouse IL-5Rα-expressing cell Y16; test: Antigen binding activity of chimeric antibodies on Y16 cells by FCM; type: cell-based; conditions: 0.6-10000 ng/mL antibody, 4° C. 60 min; FIG. 12
Procedure: The chimeric antibodies prepared in Example 8 were evaluated for their antigen binding activity using a mouse-derived cell line Y16 expressing IL-5R. The Y16 cells were washed with SM (staining medium containing 2% FCS, 0.05% NaN3, and 1 mM EDTA in PBS). Then, Mouse BD Fc Block (manufactured by Becton, Dickinson and Company) was added thereto at a concentration of 5 μg/mL, and the mixture was left standing at 4° C. for 30 min. The cells were inoculated at a cell number of 1×10^5 cells/well to a 96-well U-bottom plate, and each chimeric antibody adjusted to a final concentration of 10000, 2500, 625, 156, 39, 10, 2.4, or 0.6 ng/mL was added thereto, followed by reaction at 4° C. for 60 min. The rat/human chimeric control antibodies used were rtDNP-1 hIgG1 (DF) antibody (KM8808) and rtDNP-1 hIgG1 (N297A) antibody (KM6161). The nucleotide sequences and amino acid sequences of the variable regions of each isotype control antibody are shown in SEQ ID NOs: 29 to 34. After washing of the cells with SM, Goat F(ab′)2 Anti-Human IgG PE (γ chain specific) (manufactured by Southern Biotech) diluted 500-fold with SM was added thereto, followed by reaction at 4° C. for 60 min. After washing of the cells with SM, the cells were resuspended in 50 μL of SM. Fluorescence intensity was measured by FCM (flow cytometer FACS Canto II (manufactured by Becton, Dickinson and Company)). The data was analyzed using FlowJo 7.65 (manufactured by Tomy Digital Biology Co., Ltd.) to calculate a Geomean value at each concentration.

mouse FcγRI = molecular target: T2, mouse FcγRI (Mus musculus, UniProt P26151); test: Biacore steady state affinity for mouse FcγRI; type: binding; conditions: Biacore T-200, Steady State Affinity mode
T2 construct: purchased R&D Systems, Inc
T2 sequence (P26151 25-404): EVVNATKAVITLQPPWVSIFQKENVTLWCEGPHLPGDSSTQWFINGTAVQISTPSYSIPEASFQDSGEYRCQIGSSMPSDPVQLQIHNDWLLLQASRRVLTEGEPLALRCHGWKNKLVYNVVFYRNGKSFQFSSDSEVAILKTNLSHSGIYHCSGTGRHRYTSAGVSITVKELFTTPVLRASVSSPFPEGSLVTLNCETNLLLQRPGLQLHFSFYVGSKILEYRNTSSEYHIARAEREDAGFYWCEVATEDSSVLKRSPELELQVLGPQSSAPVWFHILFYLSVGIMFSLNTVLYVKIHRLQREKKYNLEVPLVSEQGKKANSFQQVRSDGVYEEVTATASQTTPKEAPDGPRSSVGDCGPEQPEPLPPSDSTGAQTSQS
Procedure: as §1

mouse FcγRIIb = molecular target: T3, mouse FcγRIIb (Mus musculus, UniProt P08101); test: Biacore steady state affinity for mouse FcγRIIb; type: binding; conditions: Biacore T-200, Steady State Affinity mode
T3 construct: purchased R&D Systems, Inc
T3 sequence (P08101 30-330): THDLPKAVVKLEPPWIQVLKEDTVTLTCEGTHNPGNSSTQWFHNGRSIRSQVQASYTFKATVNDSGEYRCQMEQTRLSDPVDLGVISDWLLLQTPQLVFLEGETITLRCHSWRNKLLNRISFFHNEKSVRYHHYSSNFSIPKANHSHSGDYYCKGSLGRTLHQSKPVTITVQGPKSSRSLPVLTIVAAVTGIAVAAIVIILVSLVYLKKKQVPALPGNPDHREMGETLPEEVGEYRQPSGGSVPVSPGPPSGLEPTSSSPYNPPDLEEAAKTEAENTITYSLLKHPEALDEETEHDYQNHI
Procedure: as §1

mouse FcγRIV = molecular target: T4, mouse FcγRIV (Mus musculus, UniProt A0A0B4J1G0); test: Biacore steady state affinity for mouse FcγRIV; type: binding; conditions: Biacore T-200, Steady State Affinity mode
T4 construct: purchased R&D Systems, Inc
T4 sequence (A0A0B4J1G0 21-249): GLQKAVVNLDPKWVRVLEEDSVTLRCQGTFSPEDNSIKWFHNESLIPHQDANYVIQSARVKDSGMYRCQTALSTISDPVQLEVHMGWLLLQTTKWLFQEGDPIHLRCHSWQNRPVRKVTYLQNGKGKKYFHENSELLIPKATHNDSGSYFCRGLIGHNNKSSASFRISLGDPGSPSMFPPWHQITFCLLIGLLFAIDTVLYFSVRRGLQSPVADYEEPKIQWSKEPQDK
Procedure: as §1

Y16 cells = test: ADCC activity against Y16 cells with human PBMC effector cells (LDH release); type: cell-based, mouse; conditions: 4 hrs, 0.0001-1000 ng/mL (control antibodies 1000 ng/mL), FIG. 13
Procedure: The H7 recombinant chimeric antibodies prepared in Example 8 were evaluated for their ADCC activity against Y16 cells using frozen human peripheral blood mononuclear cells (PBMCs) (manufactured by AllCells) as effector cells. The frozen human PBMCs were shake-cultured (37° C., 5% CO2, overnight) in RPMI1640 medium containing 5% FBS. The Y16 cells (target cells) and the human PBMCs (effector cells) were washed with ADCC assay medium (RPIM1640 containing 5% dialyzed FBS) and adjusted to cell densities of 2×10^5 cells/mL and 3×10^6 cells/mL, respectively. The cells were washed twice with a medium and then suspended into cell densities of 4×10^5 cells/mL. Each chimeric antibody adjusted to a final concentration of 0.0001, 0.001, 0.01, 0.1, 1, 10, 100, or 1000 ng/mL, the target cells (2×10^4 cells/well), and the effector cells (5×10^5 cells/well) were added in this order at 50 μL/well to a 96-well U-bottom plate. The control antibodies used were the rtDNP-1 hIgG1 (DF) antibody (KM8808) and the rtDNP-1 hIgG1 (N297A) antibody (KM6161) of Example 10 adjusted to a final concentration of 1000 ng/mL. The plate was centrifuged (500 rpm, 5 min) and then left standing in an incubator (37° C., 5% CO2, 4 hrs). The plate was centrifuged (1500 rpm, 5 min) to recover a supernatant at 50 μL/well into a 96-well Flat-bottom plate (manufactured by Sumitomo Bakelite Co., Ltd.). Lactate dehydrogenase (LDH) activity in the supernatant was detected using CytoTox 96 Non-Radioactive Cytotoxicity Assay (manufactured by Promega Corp.). Absorbance at 490 nm was measured using a plate reader SPECTRA MAX 340 PC384 (manufactured by Molecular Devices, LLC). The ADCC activity (%) was calculated according to the following equation using background-corrected measurement values. Cytotoxicity=[[Absorbance of the sample]−[Absorbance derived from spontaneous release from the target cells and the effector cells]]/[[Absorbance derived from total release from the target cells]−[Absorbance derived from spontaneous release from the target cells]]

Molecule: CC#CCC(C)[C@H](O)/C=C/[C@@H]1[C@H]2C/C(=C/CCCC(=O)O)C[C@H]2C[C@H]1O (some centres unmarked) [iloprost]
- pulmonary vascular wall thickening (histological scores, Heath-Edwards grading) [1]: evident decrease in pulmonary vascular wall thickening was observed

B1: H7-1: core fucose-deficient rat/human chimeric antibody of anti-IL-5R rat monoclonal antibody H7, human IgG1 constant region (antibody, V domains shown)
VH: EVQLQQSGAELGKPGTSVKLSCKVSGYNIKNTYIHWVNQRPGKGLEWIGRIDPANGNPIYAEKFKNKATLTADTSSNTAYMQLSQLKSDDTAIYFCAMHRGHSMGPGPYVMDAWGQGASVTVSS
VL: DIQMTQSPASLSASLGETVTIECRTSEDIYNGLAWYQQKPGKSPQLLIYNANSLHTGVPSRFSGSGSGTQYSLKINSLQSEDVASYCCQQYSNYPFTFGSGTKLEIK
- Affinity KD for mouse FcγRIII (mouse FcγRIII): no binding
- antigen binding activity (fluorescence intensity, Geomean) on Y16 cells [2]: confirmed to react equivalently
- Kd (mouse FcγRI): 137 nM
- Affinity KD for mouse FcγRIIb (mouse FcγRIIb): no binding
- Kd (mouse FcγRIV): 89.5 nM
- ADCC activity against Y16 cells (Y16 cells): exhibited antibody concentration-dependent ADCC activity

B2: H7 ratIgG2a: parent anti-IL-5R rat monoclonal antibody H7, rat IgG2a type (Hitoshi et al.) (antibody, V domains shown)
VH: EVQLQQSGAELGKPGTSVKLSCKVSGYNIKNTYIHWVNQRPGKGLEWIGRIDPANGNPIYAEKFKNKATLTADTSSNTAYMQLSQLKSDDTAIYFCAMHRGHSMGPGPYVMDAWGQGASVTVSS
VL: DIQMTQSPASLSASLGETVTIECRTSEDIYNGLAWYQQKPGKSPQLLIYNANSLHTGVPSRFSGSGSGTQYSLKINSLQSEDVASYCCQQYSNYPFTFGSGTKLEIK
- Affinity KD for mouse FcγRIII (mouse FcγRIII): no binding
- Affinity KD for mouse FcγRI (mouse FcγRI): very weak
- Affinity KD for mouse FcγRIIb (mouse FcγRIIb): no binding
- Affinity KD for mouse FcγRIV (mouse FcγRIV): very weak

B3: H7-3: N-linked sugar chain-deficient H7 chimeric antibody, human IgG1 (N297A), lacking ADCC activity (antibody, V domains shown)
VH: EVQLQQSGAELGKPGTSVKLSCKVSGYNIKNTYIHWVNQRPGKGLEWIGRIDPANGNPIYAEKFKNKATLTADTSSNTAYMQLSQLKSDDTAIYFCAMHRGHSMGPGPYVMDAWGQGASVTVSS
VL: DIQMTQSPASLSASLGETVTIECRTSEDIYNGLAWYQQKPGKSPQLLIYNANSLHTGVPSRFSGSGSGTQYSLKINSLQSEDVASYCCQQYSNYPFTFGSGTKLEIK
- Affinity KD for mouse FcγRIII (mouse FcγRIII): no binding
- antigen binding activity (fluorescence intensity, Geomean) on Y16 cells [2]: confirmed to react equivalently
- Affinity KD for mouse FcγRI (mouse FcγRI): very weak
- Affinity KD for mouse FcγRIIb (mouse FcγRIIb): no binding
- Affinity KD for mouse FcγRIV (mouse FcγRIV): no binding
- ADCC activity against Y16 cells (Y16 cells): none
